US20200377590A1 (Hoffmann-La Roche, published 2020)
Residue numbers refer to the chain shown, from its start.

B1: CD81K04 HC JA_GG-15-hVH_1_3 / LC GG-04-hVK_4_1 (antibody, V domains shown)
VH: QVQLVQSGAEVKKPGASVKVSCKASGYTFSSSWMNWVRQAPGQRLEWMGRIYSGDGDAIYNGKFKGRVTITADTSASTAYMELSSLRSEDTAVYYCAREGKTGDLLLRSWGQGTLVTVSS
VL: DIVMTQSPDSLAVSLGERATINCKSSKSVSTSIYSYLAWYQQKPGQPPKLLIYYASTRESGVPDRFSGSGSGTDFTLTISSLQAEDVAVYYCQHSREFPYTFGQGTKLEIK
notes: human constant region
B2: CD81K04 HC JA_GG-15-hVH_1_3 / LC JA_GG-07-hVK_7_3 (antibody, V domains shown)
VH: B1 VH
VL: DIVLTQSPASLAVSPGQRATITCRASKSVSTSIYSYMHWYQQKPGQPPKLLIKYASNKDTGVPARFSGSGSGTDFTLTINPVEANDAANYYCLHSREFPYTFGQGTKLEIK
notes: human constant region
B3: CD81K04 HC K04_JA_GG-17-hVH_1_3 / LC JA_GG-10-hVK_4_1 (antibody, V domains shown)
VH: B1 VH with A58T, N61S, G62Q, K65Q
VL: B1 VL with K24R, S25A, L37M, A38H, Y53K, T57Y, R58L, Q93E, Y100F
notes: human constant region
B4: CD81K04 HC K04_JA-13-hVH_1_3 / LC JA_GG-09-hVK_4_1 (antibody, V domains shown)
VH: B1 VH with A72R
VL: B1 VL with L37M, A38H, Y53K, Q93E, Y100F
notes: human constant region
B5: CD81K04 HC JA_GG-14-hVH_1_69-GA / LC GG-02-hVK_4_1 (antibody, V domains shown)
VH: B1 VH with A16S, R44G, R67K, V68A, T74E, A76T
VL: B1 VL with L37M, A38H, T57Y, Y100F
notes: human constant region
B6: CD81K04 HC JA_GG-15-hVH_1_3 / LC JA_GG-09-hVK_4_1 (antibody, V domains shown)
VH: B1 VH
VL: B1 VL with L37M, A38H, Y53K, Q93E, Y100F
notes: human constant region
B7: CD81K04 HC GG-04-hVH_1_69 / LC JA_GG-07-hVK_7_3 (antibody, V domains shown)
VH: B1 VH with A16S, R44G, G62Q, K65Q, V68A, T74E, A76T
VL: B2 VL
notes: human constant region
B8: CD81K04 HC K04_JA_GG-17-hVH_1_3 / LC JA_GG-08-hVK_4_1 (antibody, V domains shown)
VH: B1 VH with A58T, N61S, G62Q, K65Q
VL: B1 VL with L37M, A38H, Y53K, T57Y, R58L, Q93E, Y100F
notes: human constant region
B9: CD81K04 HC JA_GG-15-hVH_1_3 / LC JA_GG-08-hVK_4_1 (antibody, V domains shown)
VH: B1 VH
VL: B1 VL with L37M, A38H, Y53K, T57Y, R58L, Q93E, Y100F
notes: human constant region
B10: CD81K04 HC JA_GG-14-hVH_1_69-GA / LC JA_GG-09-hVK_4_1 (antibody, V domains shown)
VH: B1 VH with A16S, R44G, R67K, V68A, T74E, A76T
VL: B1 VL with L37M, A38H, Y53K, Q93E, Y100F
notes: human constant region
B11: CD81K04 HC K04_JA_GG-17-hVH_1_3 / LC JA_GG-07-hVK_7_3 (antibody, V domains shown)
VH: B1 VH with A58T, N61S, G62Q, K65Q
VL: B2 VL
notes: human constant region
B12: CD81K04 HC JA_GG-15-hVH_1_3 / LC GG-02-hVK_4_1 (antibody, V domains shown)
VH: B1 VH
VL: B1 VL with L37M, A38H, T57Y, Y100F
notes: human constant region
B13: CD81K04 HC K04_JA-13-hVH_1_3 / LC JA_GG-08-hVK_4_1 (antibody, V domains shown)
VH: B1 VH with A72R
VL: B1 VL with L37M, A38H, Y53K, T57Y, R58L, Q93E, Y100F
notes: human constant region
B14: CD81K04 HC K04_JA-13-hVH_1_3 / LC JA_GG-10-hVK_4_1 (antibody, V domains shown)
VH: B1 VH with A72R
VL: B1 VL with K24R, S25A, L37M, A38H, Y53K, T57Y, R58L, Q93E, Y100F
notes: human constant region
B15: CD81K04 HC K04_JA_GG-17-hVH_1_3 / LC GG-04-hVK_4_1 (antibody, V domains shown)
VH: B1 VH with A58T, N61S, G62Q, K65Q
VL: B1 VL
notes: human constant region
B16: CD81K04 HC JA_GG-16-hVH_1_3 / LC GG-03-hVK_4_1 (antibody, V domains shown)
VH: B1 VH with R44G
VL: B1 VL with T57Y, Y100F
notes: human constant region
B17: CD81K04 HC GG-03-hVH_1_69 / LC JA_GG-07-hVK_7_3 (antibody, V domains shown)
VH: B1 VH with A16S, R44G, N61A, G62Q, K65Q, T74E, A76T
VL: B2 VL
notes: human constant region
B18: CD81K04 HC JA_GG-14-hVH_1_69-GA / LC JA_GG-10-hVK_4_1 (antibody, V domains shown)
VH: B1 VH with A16S, R44G, R67K, V68A, T74E, A76T
VL: B1 VL with K24R, S25A, L37M, A38H, Y53K, T57Y, R58L, Q93E, Y100F
notes: human constant region
B19: CD81K04 HC JA_GG-14-hVH_1_69-GA / LC JA_GG-08-hVK_4_1 (antibody, V domains shown)
VH: B1 VH with A16S, R44G, R67K, V68A, T74E, A76T
VL: B1 VL with L37M, A38H, Y53K, T57Y, R58L, Q93E, Y100F
notes: human constant region
B20: CD81K04 HC JA_GG-15-hVH_1_3 / LC JA_GG-10-hVK_4_1 (antibody, V domains shown)
VH: B1 VH
VL: B1 VL with K24R, S25A, L37M, A38H, Y53K, T57Y, R58L, Q93E, Y100F
notes: human constant region
B21: CD81K04 HC GG-03-hVH_1_69 / LC GG-05-hVK_3_11 (antibody, V domains shown)
VH: B1 VH with A16S, R44G, N61A, G62Q, K65Q, T74E, A76T
VL: EIVLTQSPATLSLSPGERATLSCRASKSVSTSIYSYLHWYQQKPGQAPRLLIYYASNRETGIPARFSGSGSGTDFTLTISSLEPEDFAVYYCQHSREFPFTFGQGTKLEIK
notes: human constant region
B22: CD81K04 HC JA_GG-14-hVH_1_69 / LC GG-03-hVK_4_1 (antibody, V domains shown)
VH: B1 VH with A16S, R44G, R67K, V68A, T74E, A76T
VL: B1 VL with T57Y, Y100F
notes: human constant region
B23: CD81K04 HC GG-04-hVH_1_69 / LC GG-05-hVK_3_11 (antibody, V domains shown)
VH: B1 VH with A16S, R44G, G62Q, K65Q, V68A, T74E, A76T
VL: B21 VL
notes: human constant region

Each binder was assayed against T1, CD81 (UniProt P60033 1-236, limits assumed) (assay: cell ELISA;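 further: antibody binding to HuH7 cells expressing CD81 versus a CD81-negative HuH7 control line, bound antibody detected by secondary reagent, absorbance at 450 nm with 620 nm reference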).
T1 construct: whole, on cells; also called CD81 receptor
T1 sequence (looked up): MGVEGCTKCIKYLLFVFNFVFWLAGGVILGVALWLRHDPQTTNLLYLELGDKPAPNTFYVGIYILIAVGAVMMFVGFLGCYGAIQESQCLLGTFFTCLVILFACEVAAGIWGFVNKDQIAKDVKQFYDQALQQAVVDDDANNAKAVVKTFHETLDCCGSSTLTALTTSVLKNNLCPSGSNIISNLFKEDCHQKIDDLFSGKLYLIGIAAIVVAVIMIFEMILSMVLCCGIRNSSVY
Description: For the binding cell ELISA assay, HuH7-Rluc-H3 (positive cell line expressing CD81) and HuH7-Rluc-L1 (negative control cell line) were propagated in F-12 DMEM medium with 10% FCS at 37° C. and 5% CO₂. On day 1, the cells were trypsinized at approximately 90% confluence and resuspended at 4×10⁵ cells/mL. […] On day 2, the antibody samples to be tested were prepared in a separate polypropylene round bottom plate with a twofold desired concentration with a final volume of 120 μl. All of the assay samples were diluted in cell culture medium. […] After fixation, each well was washed 3 times with 200 μL PBS/0.05% Tween. The secondary incubation step for detection of bound anti-CD81 antibodies was performed for 2 h at room temperature on a reciprocal shaker. […] Each well was washed three times with 200 μL PBS/0.05% Tween to remove unbound antibodies. […] The absorbance was read using the ELISA Tecan reader at 450 nm with 620 nm reference wavelength.

ELISA data | Binder
0.3 | B1
0.262 | B2
0.855 | B3
0.864 | B4
0.211 | B5
0.936 | B6
0.12 | B7
0.941 | B8
0.993 | B9
0.888 | B10
0.219 | B11
0.602 | B12
0.985 | B13
0.861 | B14
0.189 | B15
0.437 | B16
0.091 | B17
0.733 | B18
0.836 | B19
0.915 | B20
0.204 | B21
0.26 | B22
0.352 | B23
